In assay [1] the target is T1, human Galectin-3 protein (human, UniProt P17931 2-250, limits assumed).
T1 construct: also called Gal3
Briefly: competition ELISA: HRP-Lactose binding to plate-coated Galectin-3 [lower left panel]. An outline of the steps: (§1)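 An ELISA-like competition assay used the carbohydrate recognition domain of human Galectin-3, coated at 10 μg/ml on polystyrene 96-well plates, with a lactose-conjugated horseradish peroxidase probe. Test molecules competed with the probe's binding, and competition was read as a decrease in colour development. The half-maximal inhibitory concentration was taken from the competition curves.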

Assay [2] addresses T1, human Galectin-3 protein. Briefly: ELISA-like competition with HRP-Lac on immobilised Galectin-3; reference lactose. In outline: (§2)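 An ELISA-like competition assay used the carbohydrate recognition domain of human Galectin-3, coated at 10 μg/ml on polystyrene 96-well plates. Test molecules competed with a bound lactose-conjugated horseradish peroxidase probe, and competition was read as a decrease in colour development. Each value is the fold difference in inhibition relative to a known Galectin-3 reference ligand run in the same assay.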

Assay [3] addresses T1, human Galectin-3 protein. The assay is described as follows: ELISA-like competition: inhibition of soluble HRP-Lactose binding to immobilised Galectin-3. An outline of the steps:
as §1

The target in assay [4] is T1, human Galectin-3 protein. The assay is described as follows: competition ELISA: HRP-Lactose binding to plate-coated Galectin-3 [lower right panel]. In outline: as §1
Assay [5] concerns the target T1, human Galectin-3 protein. Briefly: ELISA-like competition with HRP-Lac on immobilised Galectin-3; reference MeGal. An outline of the steps: as §2
In assay [6] the target is T1, human Galectin-3 protein. Briefly: competition ELISA: HRP-Lactose binding to plate-coated Galectin-3 [upper right panel]. In outline:
as §1

The target in assay [7] is T1, human Galectin-3 protein. The assay is described as follows: ELISA-like competition with HRP-Lac on immobilised Galectin-3; reference Lacto-N-Tetraose. In outline:
as §2

Ends that are not written are not given here. Gal = galactose Bounds are passed on as bounds.

T1 sequence (P17931 2-250 limits assumed): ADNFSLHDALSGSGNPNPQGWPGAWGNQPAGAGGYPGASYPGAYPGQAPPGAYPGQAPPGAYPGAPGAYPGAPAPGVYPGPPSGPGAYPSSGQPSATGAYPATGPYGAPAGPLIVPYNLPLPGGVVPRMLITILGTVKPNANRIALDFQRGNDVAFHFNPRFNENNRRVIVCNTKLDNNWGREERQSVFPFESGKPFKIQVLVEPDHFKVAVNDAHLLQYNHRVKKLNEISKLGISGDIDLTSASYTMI

B1: Gal-PAPT (galactose-modified glycopeptide) (peptide)
peptide: Gal-PAPT
modifications: also: exact galactose derivative not given here
notes: Synthetic glycan-peptide conjugate; also called glycopeptide Gal-PAPT
With B1, the “IC50 (read off the curve)” value with human Galectin-3 protein [1], with human Galectin-3 protein [4] and with human Galectin-3 protein [6] was about 20 µM in each case. The “fold better inhibition than Lactose” value with human Galectin-3 protein [2] was 30 fold. The same molecule gave an EC50 in the assay with human Galectin-3 protein [3] of 14 µM. Moreover, in the assay with human Galectin-3 protein [5], the “fold better inhibition than MeGal” value is over 1500 fold. Besides, the “fold better inhibition than LNT” value with human Galectin-3 protein [7] came out at 5 fold.

For the origin of these results see patent US10724034B2, “Genetic encoding of chemical post-translational modification for phage-displayed libraries” (THE GOVERNORS OF THE UNIVERSITY OF ALBERTA, priority 2014, dated 2020).
